This note sets out measurements from article PMC3077903 (Molecular microbiology, 2011).

Changes are numbered by the printed parent chain. Names may count otherwise.

The target in one series is T1, MinD-D152A (E. coli, UniProt P0AEZ3 1-270, D152A).
T1 sequence (looked up): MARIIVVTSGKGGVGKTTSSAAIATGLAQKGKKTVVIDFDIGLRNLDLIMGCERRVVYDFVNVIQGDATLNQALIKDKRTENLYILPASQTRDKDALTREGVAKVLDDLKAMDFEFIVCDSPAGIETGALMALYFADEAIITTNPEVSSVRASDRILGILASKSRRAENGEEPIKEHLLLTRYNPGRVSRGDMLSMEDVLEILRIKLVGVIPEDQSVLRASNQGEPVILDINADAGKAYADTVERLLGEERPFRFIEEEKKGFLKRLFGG
Kind of series: two-hybrid.

The target of another series is T2, MinD (E. coli, UniProt P0AEZ3 1-270).
T2 sequence (looked up): T1 sequence (looked up) with A152D
Kind of series: two-hybrid.

The series “SEC” concerns the molecule itself. Kind of series: SEC.

B1: MinE (full length) (natural protein, E. coli, UniProt P0A734 1-88, looked up)
chain: MALLDFFLSRKKNTANIAKERLQIIVAERRRSDAEPHYLPQLRKDILEVICKYVQIDPEMVTVQLEQKDGDISILELNVTLPEAEELK
B1: the figures for the “percent of the MinE-MinD β-galactosidase activity” value with MinD-D152A and with MinD were 44% and 100%, respectively. Further, in the series with MinD-D152A, the β-galactosidase activity is 145 units of β-galactosidase activity.

B2: MinDΔ10-D40A (domain or fragment, E. coli, UniProt P0AEZ3 1-260, looked up)
chain: MARIIVVTSGKGGVGKTTSSAAIATGLAQKGKKTVVIDFAIGLRNLDLIMGCERRVVYDFVNVIQGDATLNQALIKDKRTENLYILPASQTRDKDALTREGVAKVLDDLKAMDFEFIVCDSPAGIETGALMALYFADEAIITTNPEVSSVRDSDRILGILASKSRRAENGEEPIKEHLLLTRYNPGRVSRGDMLSMEDVLEILRIKLVGVIPEDQSVLRASNQGEPVILDINADAGKAYADTVERLLGEERPFRFIEEEK
As for B2, the “stoichiometry N” value in “SEC” was 2.

B3: MinE^1-31 (domain or fragment, E. coli, UniProt P0A734 1-31, looked up)
chain: MALLDFFLSRKKNTANIAKERLQIIVAERRR
Consider B3, for which the “percent of the MinE-MinD β-galactosidase activity” value in the series with MinD-D152A was 8%; in the series with MinD, 120%. Besides, the β-galactosidase activity with MinD-D152A was 28 units of β-galactosidase activity; with MinD it was 398 units of β-galactosidase activity.

As usually defined, the stoichiometry N is a count of units in the complex or per binding partner.
